Biological target: T1, human IL-11Rα (human, UniProt Q14626 23-363, limits assumed)
T1 construct: Protein coated on ELISA plates and used in solution for BLI; also called hIL-11Rα; hIL-11R
T1 sequence: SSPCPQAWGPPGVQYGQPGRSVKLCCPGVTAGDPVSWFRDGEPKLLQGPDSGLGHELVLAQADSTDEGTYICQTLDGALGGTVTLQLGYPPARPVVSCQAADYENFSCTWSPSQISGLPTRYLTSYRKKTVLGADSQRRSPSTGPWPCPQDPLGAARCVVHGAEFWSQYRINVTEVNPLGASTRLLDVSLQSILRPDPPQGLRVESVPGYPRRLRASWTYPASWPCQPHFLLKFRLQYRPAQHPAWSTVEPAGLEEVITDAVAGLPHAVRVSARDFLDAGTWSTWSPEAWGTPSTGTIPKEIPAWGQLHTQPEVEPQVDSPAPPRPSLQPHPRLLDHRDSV
Assay: competitive ELISA, IL-11R coated on plate; competitor: biotinylated 8E2 (0.1 µg/mL); competing against 8E2-bio
Method: Relative binding activity of the antibodies was tested by competitive ELISA using biotinylated mAbs 8E2 or TS7. Antibodies 8E2 and TS7 were biotinylated using sulfo-NHS Biotin (Thermo Fisher) per the manufacturer's instructions. IL-11R was coated onto ELISA plates (Nunc, MaxiSorp) at 2 μg/mL in PBS, and plates were blocked with 2% BSA in PBS. After washing the plate with water, antibodies to be tested were titrated across the plate in a final volume of 90 μL followed by addition of 10 μL of biotinylated 8E2 or biotinylated TS7, as indicated in Table E1 (0.1 μg/mL final concentration) to each well. Plates were incubated for 2 hours on a plate-shaker, followed by washing and addition of 100 μL/well of streptavidin-HRP (Jackson ImmunoResearch, 1/1000 dilution). After a further 1 hour incubation, plates were washed, developed with Ultra-TMB HRP substrate (Thermo Fisher), and stopped by the addition of 50 μL/well of 2 M sulfuric acid. Plates were read at 450 nm on an iD5 plate reader (Molecular Devices).

IC50: > 10 µg/mL
B1: mAb1 (antibody, V domains shown)
VH: EVQLLESGGGLVQPGGSLRLSCAASGFTFSWYSMTWVRQAPGKGLEWVSSIVPSGGHTQYADSVKGRFTISRDNSKNTLYLQMNSLRAEDTAVYYCAKGPDWGSFDLWGRGTLVTVSS
VL: DIQMTQSPSSLSASVGDRVTITCQASQDINNYLNWYQQKPGKAPKLLIYDASNLQTGVPSRFSGSGSGTDFTFTISSLQPEDIATYYCQQHESQSPTFGPGTKVDIK
notes: Expressed as human IgG4 (S228P EU)

— US20240425606A1, “ANTI-IL-11RA ANTIBODIES” (Lassen Therapeutics 1, Inc., priority 2021, published 2024)
